Reference: the supplement of paper PMC11316812
± gives the standard deviation of the averaged measurements.

What was measured:
hTERT-HMEC = experiment: percentage of EdU-negative (G0-arrested) nuclei per well, 72 h; higher = more G0 arrest; settings: reference: sequence is the full UniProt precursor, the tested protein was the secreted form or ectodomain
MCF7 = experiment: as above; settings: reference: sequence is the full UniProt precursor, the tested protein was the secreted form or ectodomain
[1] = protein concentration 0.0285714 µM
[2] = protein concentration 0.285714 µM
[3] = protein concentration 0.0357143 µM
[4] = protein concentration 0.357143 µM
[5] = protein concentration 0.0225 µM
[6] = protein concentration 0.0175 µM
[7] = protein concentration 0.0128571 µM
[8] = protein concentration 0.128571 µM
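Note: secreted proteins added to cultured cells, EdU pulse at the end, nuclei found by Hoechst imaging, EdU status from nuclear versus surrounding ring intensity ratio, PBS as neutral control.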

MGPLSAPPCTQRITWKGVLLTASLLNFWNPPTTAQVTIEAQPPKVSEGKDVLLLVHNLPQNLAGYIWYKGQMTYLYHYITSYVVDGQRIIYGPAYSGRERVYSNASLLIQNVTQEDAGSYTLHIIKRRDGTGGVTGHFTFTLHLETPKPSISSSNLNPREAMEAVILTCDPATPAASYQWWMNGQSLPMTHRLQLSKTNRTLFIFGVTKYIAGPYECEIRNPVSASRSDPVTLNLLPKLSKPYITINNLNPRENKDVLTFTCEPKSKNYTYIWWLNGQSLPVSPRVKRPIENRILILPNVTRNETGPYQCEIRDRYGGIRSDPVTLNVLYGPDLPSIYPSFTYYRSGENLYLSCFAESNPRAQYSWTINGKFQLSGQKLSIPQITTKHSGLYACSVRNSATGKESSKSITVKVSDWILP
percentage of EdU-negative (hTERT-HMEC; [1]): 4.04 ± 0.52% | percentage of EdU-negative (hTERT-HMEC; [2]): 11.7 ± 1.3% | percentage of EdU-negative (MCF7; [1]): 25.3 ± 1.1% | percentage of EdU-negative (MCF7; [2]): 30.6 ± 3.2%

MGPPPGAGVSCRGGCGFSRLLAWCFLLALSPQAPGSRGAEAVWTAYLNVSWRVPHTGVNRTVWELSEEGVYGQDSPLEPVAGVLVPPDGPGALNACNPHTNFTVPTVWGSTVQVSWLALIQRGGGCTFADKIHLAYERGASGAVIFNFPGTRNEVIPMSHPGAVDIVAIMIGNLKGTKILQSIQRGIQVTMVIEVGKKHGPWVNHYSIFFVSVSFFIITAATVGYFIFYSARRLRNARAQSRKQRQLKADAKKAIGRLQLRTLKQGDKEIGPDGDSCAVCIELYKPNDLVRILTCNHIFHKTCVDPWLLEHRTCPMCKCDILKALGIEVDVEDGSVSLQVPVSNEISNSASSHEEDNRSETASSGYASVQGTDEPPLEEHVQSTNESLQLVNHEANSVAVDVIPHVDNPTFEEDETPNQETAVREIKS [Q8TEB7]
percentage of EdU-negative (hTERT-HMEC; [3]): 4.65 ± 0.73% | percentage of EdU-negative (hTERT-HMEC; [4]): 10.2 ± 2.7% | percentage of EdU-negative (MCF7; [3]): 24.4 ± 1.5% | percentage of EdU-negative (MCF7; [4]): 31.5 ± 1.1%

MGPPSASPHRECIPWQGLLLTASLLNFWNPPTTAKLTIESMPLSVAEGKEVLLLVHNLPQHLFGYSWYKGERVDGNSLIVGYVIGTQQATPGAAYSGRETIYTNASLLIQNVTQNDIGFYTLQVIKSDLVNEEATGQFHVYQENAPGLPVGAVAGIVTGVLVGVALVAALVCFLLLAKTGRTSIQRDLKEQQPQALAPGRGPSHSSAFSMSPLSTAQAPLPNPRTAASIYEELLKHDTNIYCRMDHKAEVAS
percentage of EdU-negative (hTERT-HMEC; [5]): 5.43 ± 0.36% | percentage of EdU-negative (hTERT-HMEC; protein concentration 0.225 µM): 5.03 ± 0.028% | percentage of EdU-negative (MCF7; [5]): 25 ± 3.7% | percentage of EdU-negative (MCF7; protein concentration 0.225 µM): 25.4 ± 1.4%

MGPPSSSGFYVSRAVALLLAGLVAALLLALAVLAALYGHCERVPPSELPGLRDLEAESSPPLRQKPTPTPKPSSARELAVTTTPSNWRPPGPWDQLRLPPWLVPLHYDLELWPQLRPDELPAGSLPFTGRVNITVRCTVATSRLLLHSLFQDCERAEVRGPLSPGTGNATVGRVPVDDVWFALDTEYMVLELSEPLKPGSSYELQLSFSGLVKEDLREGLFLNVYTDQGERRALLASQLEPTFARYVFPCFDEPALKATFNITMIHHPSYVALSNMPKLGQSEKEDVNGSKWTVTTFSTTPHMPTYLVAFVICDYDHVNRTERGKEIRIWARKDAIANGSADFALNITGPIFSFLEDLFNISYSLPKTDIIALPSFDNHAMENWGLMIFDESGLLLEPKDQLTEKKTLISYVVSHEIGHQWFGNLVTMNWWNNIWLNEGFASYFEFEVINYFNPKLPRNEIFFSNILHNILREDHALVTRAVAMKVENFKTSEIQELFDIFTYSKGASMARMLSCFLNEHLFVSALKSYLKTFSYSNAEQDDLWRHFQMAIDDQSTVILPATIKNIMDSWTHQSGFPVITLNVSTGVMKQEPFYLENIKNRTLLTSNDTWIVPILWIKNGTTQPLVWLDQSSKVFPEMQVSDSDHDWVILNLNMTGYYRVNYDKLGWKKLNQQLEKDPKAIPVIHRLQLIDDAFSLSKNNYIEIETALELTKYLAEEDEIIVWHTVLVNLVTRDLVSEVNIYDIYSLLKRYLLKRLNLIWNIYSTIIRENVLALQDDYLALISLEKLFVTACWLGLEDCLQLSKELFAKWVDHPENEIPYPIKDVVLCYGIALGSDKEWDILLNTYTNTTNKEEKIQLAYAMSCSKDPWILNRYMEYAISTSPFTSNETNIIEVVASSEVGRYVAKDFLVNNWQAVSKRYGTQSLINLIYTIGRTVTTDLQIVELQQFFSNMLEEHQRIRVHANLQTIKNENLKNKKLSARIAAWLRRNT [Q6Q4G3]
percentage of EdU-negative (hTERT-HMEC; [6]): 5.44 ± 0.3% | percentage of EdU-negative (hTERT-HMEC; protein concentration 0.175 µM): 16.6 ± 0.49% | percentage of EdU-negative (MCF7; [6]): 22.3 ± 0.34% | percentage of EdU-negative (MCF7; protein concentration 0.175 µM): 27.4 ± 4.3%

MGPRARPALLLLMLLQTAVLQGRLLRSHSLHYLFMGASEQDLGLSLFEALGYVDDQLFVFYDHESRRVEPRTPWVSSRISSQMWLQLSQSLKGWDHMFTVDFWTIMENHNHSKESHTLQVILGCEMQEDNSTEGYWKYGYDGQDHLEFCPDTLDWRAAEPRAWPTKLEWERHKIRARQNRAYLERDCPAQLQQLLELGRGVLDQQVPPLVKVTHHVTSSVTTLRCRALNYYPQNITMKWLKDKQPMDAKEFEPKDVLPNGDGTYQGWITLAVPPGEEQRYTCQVEHPGLDQPLIVIWEPSPSGTLVIGVISGIAVFVVILFIGILFIILRKRQGSRGAMGHYVLAERE
percentage of EdU-negative (hTERT-HMEC; [7]): 5.75 ± 0.3% | percentage of EdU-negative (hTERT-HMEC; [8]): 7.25 ± 1.1% | percentage of EdU-negative (MCF7; [7]): 25.8 ± 0.42% | percentage of EdU-negative (MCF7; [8]): 29 ± 1.8%
